Patent publication US10927153 (UNIVERSITY OF SOUTH FLORIDA, dated 2021)

Key:
[1] = target: T1, Duffy Antigen Receptor for Chemokines (DARC) on human Duffy positive erythrocytes (human, UniProt Q16570 1-336); test: COS7 cell binding assay (rosettes)
T1 construct: whole, on cells; also called DARC positive erythrocytes
T1 sequence: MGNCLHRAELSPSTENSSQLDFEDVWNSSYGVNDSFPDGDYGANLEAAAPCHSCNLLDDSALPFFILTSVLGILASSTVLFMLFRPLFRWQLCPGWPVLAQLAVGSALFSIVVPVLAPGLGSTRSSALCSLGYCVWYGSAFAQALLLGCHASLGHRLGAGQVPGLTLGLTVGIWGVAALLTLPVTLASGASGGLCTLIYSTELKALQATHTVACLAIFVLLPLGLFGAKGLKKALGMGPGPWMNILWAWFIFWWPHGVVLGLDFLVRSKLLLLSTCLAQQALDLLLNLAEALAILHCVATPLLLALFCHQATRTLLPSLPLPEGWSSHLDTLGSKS

[2] = target: T1, Duffy Antigen Receptor for Chemokines …; test: in vitro erythrocyte binding assay, eluted antigen detected by blot with mAb-3D10
[3] = target: T1, Duffy Antigen Receptor for Chemokines …; test: in vitro erythrocyte binding assay, blot of eluted antigen
[4] = target: T2, Sal-1 DBP-II expressed on the surface of HEK293T cells (Plasmodium vivax, UniProt P22290 198-525); test: immunofluorescence on HEK293T cells, 10 ug/mL mAb
T2 construct: Expressed from the pRE4 vector on HEK293T cells; also called P. vivax Sal-1 DBP-II

[5] = target: T3, Sal-1 DBP-II Mutant 12 (changes at residues 479 and 480), recombinant (Plasmodium vivax (strain Salvador I), UniProt P22290 211-525); test: ELISA on adsorbed recombinant protein
T3 chain: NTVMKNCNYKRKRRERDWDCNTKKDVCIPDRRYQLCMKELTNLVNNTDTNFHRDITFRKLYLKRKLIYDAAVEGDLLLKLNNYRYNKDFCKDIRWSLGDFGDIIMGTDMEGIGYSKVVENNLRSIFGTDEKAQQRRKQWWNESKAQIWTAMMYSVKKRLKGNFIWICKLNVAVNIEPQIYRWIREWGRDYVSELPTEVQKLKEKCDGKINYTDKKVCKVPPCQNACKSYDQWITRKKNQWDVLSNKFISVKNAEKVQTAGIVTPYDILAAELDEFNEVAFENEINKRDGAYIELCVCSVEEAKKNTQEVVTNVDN

[6] = target: T4, Sal-1 DBP-II Mutant 1 (changes at residues 218 and 221-223), recombinant (Plasmodium vivax (strain Salvador I), UniProt P22290 211-525); test: ELISA on adsorbed recombinant protein
T4 chain: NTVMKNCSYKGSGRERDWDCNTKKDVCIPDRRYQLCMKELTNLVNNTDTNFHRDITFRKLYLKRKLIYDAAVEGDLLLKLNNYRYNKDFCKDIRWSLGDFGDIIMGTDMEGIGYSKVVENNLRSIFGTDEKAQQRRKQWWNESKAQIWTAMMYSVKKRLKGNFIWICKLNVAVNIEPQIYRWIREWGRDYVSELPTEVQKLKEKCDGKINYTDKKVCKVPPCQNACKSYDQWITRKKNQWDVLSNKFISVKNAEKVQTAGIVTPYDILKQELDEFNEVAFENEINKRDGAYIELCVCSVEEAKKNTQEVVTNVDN

B1: DEKnull-2 expressed on the surface of COS7 cells (designed binder)
chain: TISSAIINHAFLQNTVMKNCNYKRKRRERDWDCNTKKDVCIPDRRYQLCMKELTNLVNNTDTNFHADITFRKLYLKAKLIYDAAVEGDLLTKLNNYRYNKDFCKDIRWSLGDFGDIIMGTDMEGIGTSAVVENNLRSIFGTAATAQARRSQWTSESKAQIWTAMMYSVKKRLKGTFIWICKANVAVNIEPQIYRSIREWGRDYVAELPTEVTKLKEKCDGKINYADKKVCKVPPCQNACKSYDQWITRKANQWDVLSNKFTSAKNAEKAQTASIVTPYDILKQELDEFNEVAFENEINKRDGAYIELCVCSVEEAKKNTQEVVTNVDN
notes: also called COS7 cell surface-expressed rDEKnull-2
binding result [1]: binds

B2: recombinant DEKnull-4 (designed binder)
chain: TISSAIINHAFLQNTVMKNCNYKRKRRERDWDCNTKKDVCIPDRRYQLCMKALTNLVNNTDTNFHRDITARKAYLAAKLTADAASEGDLLLKLAATATSAATCKDIRWSLGDFGDIIMGTDMEGIGYSKVVENNLRSIFGTDEKAQQRRKQWWNESKATIWTAMMASATASAATSAATAAKLNVAVNIEPQIYRWIREWGRDYVSELPTEVQKLKEKCDGKINYTDKKVCKVPPCQNACKSYDQWITRKKNQWDVLSNKFISVKNAEKVQTAGIVTPYDILKQELDEFNEVAFENEINKRDGAYIELCVCSVEEAKKNTQEVVTNVDNHHHHHH
notes: Dimerization residues of Sal1 mutated; also called rDEKnull-4
binding result [2]: no binding

B3: DBPII Sal1 expressed on the surface of COS7 cells (ligand)
chain: TISSAIINHAFLQNTVMKNCNYKRKRRERDWDCNTKKDVCIPDRRYQLCMKELTNLVNNTDTNFHRDITFRKLYLKRKLIYDAAVEGDLLLKLNNYRYNKDFCKDIRWSLGDFGDIIMGTDMEGIGYSKVVENNLRSIFGTDEKAQQRRKQWWNESKAQIWTAMMYSVKKRLKGNFIWICKLNVAVNIEPQIYRWIREWGRDYVSELPTEVQKLKEKCDGKINYTDKKVCKVPPCQNACKSYDQWITRKKNQWDVLSNKFISVKNAEKVQTAGIVTPYDILKQELDEFNEVAFENEINKRDGAYIELCVCSVEEAKKNTQEVVTNVDN
notes: also called COS7 cell surface-expressed Sal1; wild type DBPII Sal1
binding result [1]: binds

B4: recombinant DBPII Sal1 (ligand domain, region II, of Plasmodium vivax Duffy binding protein, Sal1 allele) (ligand)
chain: TISSAIINHAFLQNTVMKNCNYKRKRRERDWDCNTKKDVCIPDRRYQLCMKELTNLVNNTDTNFHRDITFRKLYLKRKLIYDAAVEGDLLLKLNNYRYNKDFCKDIRWSLGDFGDIIMGTDMEGIGYSKVVENNLRSIFGTDEKAQQRRKQWWNESKAQIWTAMMYSVKKRLKGNFIWICKLNVAVNIEPQIYRWIREWGRDYVSELPTEVQKLKEKCDGKINYTDKKVCKVPPCQNACKSYDQWITRKKNQWDVLSNKFISVKNAEKVQTAGIVTPYDILKQELDEFNEVAFENEINKRDGAYIELCVCSVEEAKKNTQEVVTNVDN
notes: also called rDBPII Sal1; rDBPII
binding result [3]: binds

B5: recombinant DEKnull (designed binder)
chain: TISSAIINHAFLQNTVMKNCNYKRKRRERDWDCNTKKDVCIPDRRYQLCMKELTNLVNNTDTNFHRDITFRKLYLKRKLIYDAAVEGDLLLKLNNYRYNKDFCKDIRWSLGDFGDIIMGTDMEGIGYSKVVENNLRSIFGTAATAQATRSQWTSESKAQIWTAMMYSVKKRLKGNFIWICKLNVAVNIEPQIYRWIREWGRDYVSELPTEVQKLKEKCDGKINYTDKKVCKVPPCQNACKSYDQWITRKKNQWDVLSNKFISVKNAEKVQTAGIVTPYDILKQELDEFNEVAFENEINKRDGAYIELCVCSVEEAKKNTQEVVTNVDN
notes: also called rDEKnull; original DEKnull
binding result [3]: binds

B6: DEKnull-4 expressed on the surface of COS7 cells (designed binder)
chain: TISSAIINHAFLQNTVMKNCNYKRKRRERDWDCNTKKDVCIPDRRYQLCMKALTNLVNNTDTNFHRDITARKAYLAAKLTADAASEGDLLLKLAATATSAATCKDIRWSLGDFGDIIMGTDMEGIGYSKVVENNLRSIFGTDEKAQQRRKQWWNESKATIWTAMMASATASAATSAATAAKLNVAVNIEPQIYRWIREWGRDYVSELPTEVQKLKEKCDGKINYTDKKVCKVPPCQNACKSYDQWITRKKNQWDVLSNKFISVKNAEKVQTAGIVTPYDILKQELDEFNEVAFENEINKRDGAYIELCVCSVEEAKKNTQEVVTNVDN
notes: also called COS7 cell surface-expressed DEKnull-4
binding result [1]: no binding

B7: anti-DBPII monoclonal antibody mAb 2C6 (antibody, V domains shown)
VH: QVQLQQSDAELVKPGASVKISCKVSGYTFTDHSIHWMKQRPEQGLEWIGYIYPRDGSTEYNEKFKGKATLTTDKSSSTAYMQLNSLTSADSAVYFCARWFGYYFDYWGQGTTLTVSS
VL: NIMMTQSPSSLAVSAGEKVTMSCKSSQSVLYSSNQKNYLAWYQQKPGQSPKLLIYWASSRESGVPDRFTGSGSGTDFTLTISSVQPEDLAVYYCHQYLSSWTFGGGTKLEITR
binding result [4]: binds | binding result [5]: no binding | binding result [6]: binds

B8: recombinant DEKnull-3 (designed binder)
chain: TISSAIINHAFLQNTVMKNCNYKRKRRERDWDCNTKKDVCIPDRRYQLCMKELTNLTATATSAAHRDITFRKLYAARTSAYDAAVEGDLLLKLTNYRASTDACKAATWSLGDFGDIIMGTDMEGIGYSKVVATNLRSIFGTDEKAQQRRKQWTATSKAQIWTAMMAASTAASKGNAIWSCKLNVAVNIEPTIAAWIATSARATSSELPTEVQKLKEKCDGKINYTDKKVCKVPPCQNACKSYDQWITRKKNQWDVLSNKFISVKNAEKVQTAGIVTPYDILKQELDEFNEVAFENEINKRDGAYIELCVCSVEEAKKNTQEVVTNVDNHHHHHH
notes: also called rDEKnull-3
binding result [2]: no binding

B9: DEKnull-3 expressed on the surface of COS7 cells (designed binder)
chain: TISSAIINHAFLQNTVMKNCNYKRKRRERDWDCNTKKDVCIPDRRYQLCMKELTNLTATATSAAHRDITFRKLYAARTSAYDAAVEGDLLLKLTNYRASTDACKAATWSLGDFGDIIMGTDMEGIGYSKVVATNLRSIFGTDEKAQQRRKQWTATSKAQIWTAMMAASTAASKGNAIWSCKLNVAVNIEPTIAAWIATSARATSSELPTEVQKLKEKCDGKINYTDKKVCKVPPCQNACKSYDQWITRKKNQWDVLSNKFISVKNAEKVQTAGIVTPYDILKQELDEFNEVAFENEINKRDGAYIELCVCSVEEAKKNTQEVVTNVDN
notes: also called COS7 cell surface-expressed DEKnull-3
binding result [1]: no binding

B10: recombinant DEKnull-2 (designed binder)
chain: TISSAIINHAFLQNTVMKNCNYKRKRRERDWDCNTKKDVCIPDRRYQLCMKELTNLVNNTDTNFHADITFRKLYLKAKLIYDAAVEGDLLTKLNNYRYNKDFCKDIRWSLGDFGDIIMGTDMEGIGTSAVVENNLRSIFGTAATAQARRSQWTSESKAQIWTAMMYSVKKRLKGTFIWICKANVAVNIEPQIYRSIREWGRDYVAELPTEVTKLKEKCDGKINYADKKVCKVPPCQNACKSYDQWITRKANQWDVLSNKFTSAKNAEKAQTASIVTPYDILKQELDEFNEVAFENEINKRDGAYIELCVCSVEEAKKNTQEVVTNVDNHHHHHH
notes: Polymorphic residues of Sal1 mutated; also called rDEKnull-2
binding result [3]: binds
